± gives the uncertainty stated by the source.
Assay: abundance fitness (aPCA) (normalised: wild type 0, dead -1); higher = more abundant; growth selection in yeast, the domain comes from the species named
Conditions: Saccharomyces cerevisiae (strain ATCC 204508 / S288c)

**Q.** With “E3 ubiquitin-protein ligase RSP5 G336Y, P39940” as the substance, how does the abundance fitness read?
**A.** Its abundance fitness is -0.815 ± 0.19.

**Q.** Which abundance fitness does the source give for “E3 ubiquitin-protein ligase RSP5 G345C, P39940” here?
**A.** Its abundance fitness is -0.364 ± 0.06.

**Q.** For “E3 ubiquitin-protein ligase RSP5 G345D, P39940”, which abundance fitness is on record?
**A.** The abundance fitness was -0.271 ± 0.26.

**Q.** Which abundance fitness does the source give for “E3 ubiquitin-protein ligase RSP5 G345E, P39940” here?
**A.** The abundance fitness was -0.312 ± 0.057.

**Q.** With “E3 ubiquitin-protein ligase RSP5 G345K, P39940” as the substance, how does the abundance fitness read?
**A.** The abundance fitness was 0.148 ± 0.11.

**Q.** Which abundance fitness does the source give for “E3 ubiquitin-protein ligase RSP5 G345L, P39940” here?
**A.** The abundance fitness was -0.303 ± 0.062.

**Q.** For “E3 ubiquitin-protein ligase RSP5 G345M, P39940”, which abundance fitness is on record?
**A.** The abundance fitness was -0.14 ± 0.074.

**Q.** Which abundance fitness does the source give for “E3 ubiquitin-protein ligase RSP5 G345P, P39940” here?
**A.** Its abundance fitness is -0.717 ± 0.084.

**Q.** For “E3 ubiquitin-protein ligase RSP5 G345Q, P39940”, which abundance fitness is on record?
**A.** The abundance fitness was -0.202 ± 0.08.

**Q.** Which abundance fitness does the source give for “E3 ubiquitin-protein ligase RSP5 G345R, P39940” here?
**A.** The abundance fitness was -0.219 ± 0.047.

**Q.** With “E3 ubiquitin-protein ligase RSP5 G345T, P39940” as the substance, how does the abundance fitness read?
**A.** Its abundance fitness is -0.665 ± 0.069.

**Q.** With “E3 ubiquitin-protein ligase RSP5 G345W, P39940” as the substance, how does the abundance fitness read?
**A.** Its abundance fitness is -0.466 ± 0.049.

**Q.** For “E3 ubiquitin-protein ligase RSP5 H352A, P39940”, which abundance fitness is on record?
**A.** Its abundance fitness is -0.236 ± 0.045.

**Q.** Which abundance fitness does the source give for “E3 ubiquitin-protein ligase RSP5 H352C, P39940” here?
**A.** Its abundance fitness is -0.384 ± 0.067.

**Q.** For “E3 ubiquitin-protein ligase RSP5 H352D, P39940”, which abundance fitness is on record?
**A.** The abundance fitness was -0.325 ± 0.099.

**Q.** For “E3 ubiquitin-protein ligase RSP5 H352E, P39940”, which abundance fitness is on record?
**A.** Its abundance fitness is -0.296 ± 0.056.

**Q.** Which abundance fitness does the source give for “E3 ubiquitin-protein ligase RSP5 H352G, P39940” here?
**A.** The abundance fitness was -0.229 ± 0.04.

**Q.** Which abundance fitness does the source give for “E3 ubiquitin-protein ligase RSP5 H352I, P39940” here?
**A.** The abundance fitness was -0.046 ± 0.16.

**Q.** With “E3 ubiquitin-protein ligase RSP5 H352K, P39940” as the substance, how does the abundance fitness read?
**A.** The abundance fitness was -0.176 ± 0.074.

**Q.** For “E3 ubiquitin-protein ligase RSP5 H352L, P39940”, which abundance fitness is on record?
**A.** Its abundance fitness is -0.235 ± 0.057.

**Q.** For “E3 ubiquitin-protein ligase RSP5 H352M, P39940”, which abundance fitness is on record?
**A.** The abundance fitness was -0.104 ± 0.053.

**Q.** Which abundance fitness does the source give for “E3 ubiquitin-protein ligase RSP5 H352N, P39940” here?
**A.** The abundance fitness was 0.049 ± 0.085.

**Q.** For “E3 ubiquitin-protein ligase RSP5 H352P, P39940”, which abundance fitness is on record?
**A.** Its abundance fitness is -0.636 ± 0.05.

**Q.** With “E3 ubiquitin-protein ligase RSP5 H352Q, P39940” as the substance, how does the abundance fitness read?
**A.** The abundance fitness was -0.19 ± 0.086.

**Q.** With “E3 ubiquitin-protein ligase RSP5 H352R, P39940” as the substance, how does the abundance fitness read?
**A.** Its abundance fitness is -0.253 ± 0.046.

**Q.** With “E3 ubiquitin-protein ligase RSP5 H352S, P39940” as the substance, how does the abundance fitness read?
**A.** Its abundance fitness is -0.297 ± 0.051.

**Q.** Which abundance fitness does the source give for “E3 ubiquitin-protein ligase RSP5 H352T, P39940” here?
**A.** The abundance fitness was -0.197 ± 0.055.

**Q.** For “E3 ubiquitin-protein ligase RSP5 H352V, P39940”, which abundance fitness is on record?
**A.** Its abundance fitness is -0.361 ± 0.056.

**Q.** With “E3 ubiquitin-protein ligase RSP5 H352W, P39940” as the substance, how does the abundance fitness read?
**A.** Its abundance fitness is -0.223 ± 0.049.

**Q.** With “E3 ubiquitin-protein ligase RSP5 H352Y, P39940” as the substance, how does the abundance fitness read?
**A.** Its abundance fitness is -0.176 ± 0.12.

**Q.** For “E3 ubiquitin-protein ligase RSP5 L330A, P39940”, which abundance fitness is on record?
**A.** The abundance fitness was 0.005 ± 0.046.

**Q.** Which abundance fitness does the source give for “E3 ubiquitin-protein ligase RSP5 L330C, P39940” here?
**A.** Its abundance fitness is 0.05 ± 0.062.

**Q.** Which abundance fitness does the source give for “E3 ubiquitin-protein ligase RSP5 L330D, P39940” here?
**A.** The abundance fitness was 0.02 ± 0.065.

**Q.** With “E3 ubiquitin-protein ligase RSP5 L330E, P39940” as the substance, how does the abundance fitness read?
**A.** Its abundance fitness is 0.013 ± 0.063.

**Q.** Which abundance fitness does the source give for “E3 ubiquitin-protein ligase RSP5 L330F, P39940” here?
**A.** The abundance fitness was -0.014 ± 0.071.

**Q.** With “E3 ubiquitin-protein ligase RSP5 L330G, P39940” as the substance, how does the abundance fitness read?
**A.** The abundance fitness was -0.087 ± 0.043.

**Q.** Which abundance fitness does the source give for “E3 ubiquitin-protein ligase RSP5 L330H, P39940” here?
**A.** The abundance fitness was -0.048 ± 0.067.

**Q.** Which abundance fitness does the source give for “E3 ubiquitin-protein ligase RSP5 L330I, P39940” here?
**A.** The abundance fitness was 0.007 ± 0.062.

**Q.** Which abundance fitness does the source give for “E3 ubiquitin-protein ligase RSP5 L330K, P39940” here?
**A.** Its abundance fitness is -0.023 ± 0.056.

**Q.** For “E3 ubiquitin-protein ligase RSP5 L330M, P39940”, which abundance fitness is on record?
**A.** Its abundance fitness is 0.089 ± 0.073.

**Q.** Which abundance fitness does the source give for “E3 ubiquitin-protein ligase RSP5 L330N, P39940” here?
**A.** The abundance fitness was 0.054 ± 0.08.

**Q.** For “E3 ubiquitin-protein ligase RSP5 L330P, P39940”, which abundance fitness is on record?
**A.** Its abundance fitness is -0.058 ± 0.069.

**Q.** Which abundance fitness does the source give for “E3 ubiquitin-protein ligase RSP5 L330Q, P39940” here?
**A.** The abundance fitness was -0.024 ± 0.053.

**Q.** For “E3 ubiquitin-protein ligase RSP5 L330R, P39940”, which abundance fitness is on record?
**A.** The abundance fitness was -0.088 ± 0.045.

**Q.** With “E3 ubiquitin-protein ligase RSP5 L330S, P39940” as the substance, how does the abundance fitness read?
**A.** Its abundance fitness is -0.055 ± 0.05.

**Q.** For “E3 ubiquitin-protein ligase RSP5 L330T, P39940”, which abundance fitness is on record?
**A.** The abundance fitness was -0.044 ± 0.062.

**Q.** Which abundance fitness does the source give for “E3 ubiquitin-protein ligase RSP5 L330V, P39940” here?
**A.** The abundance fitness was -0.019 ± 0.041.

**Q.** Which abundance fitness does the source give for “E3 ubiquitin-protein ligase RSP5 L330W, P39940” here?
**A.** The abundance fitness was -0.161 ± 0.054.

**Q.** With “E3 ubiquitin-protein ligase RSP5 L330Y, P39940” as the substance, how does the abundance fitness read?
**A.** The abundance fitness was -0.003 ± 0.08.

**Q.** With “E3 ubiquitin-protein ligase RSP5 L333A, P39940” as the substance, how does the abundance fitness read?
**A.** Its abundance fitness is -0.648 ± 0.05.

**Q.** Which abundance fitness does the source give for “E3 ubiquitin-protein ligase RSP5 L333C, P39940” here?
**A.** Its abundance fitness is -0.428 ± 0.06.

**Q.** With “E3 ubiquitin-protein ligase RSP5 L333D, P39940” as the substance, how does the abundance fitness read?
**A.** Its abundance fitness is -0.472 ± 0.14.

**Q.** Which abundance fitness does the source give for “E3 ubiquitin-protein ligase RSP5 L333E, P39940” here?
**A.** Its abundance fitness is -0.64 ± 0.075.

**Q.** With “E3 ubiquitin-protein ligase RSP5 L333F, P39940” as the substance, how does the abundance fitness read?
**A.** The abundance fitness was -0.034 ± 0.054.

**Q.** With “E3 ubiquitin-protein ligase RSP5 L333G, P39940” as the substance, how does the abundance fitness read?
**A.** Its abundance fitness is -0.708 ± 0.043.

**Q.** For “E3 ubiquitin-protein ligase RSP5 L333H, P39940”, which abundance fitness is on record?
**A.** The abundance fitness was -0.451 ± 0.07.

**Q.** With “E3 ubiquitin-protein ligase RSP5 L333I, P39940” as the substance, how does the abundance fitness read?
**A.** The abundance fitness was -0.227 ± 0.067.

**Q.** With “E3 ubiquitin-protein ligase RSP5 L333K, P39940” as the substance, how does the abundance fitness read?
**A.** The abundance fitness was -0.6 ± 0.09.

**Q.** For “E3 ubiquitin-protein ligase RSP5 L333M, P39940”, which abundance fitness is on record?
**A.** The abundance fitness was -0.037 ± 0.097.

**Q.** For “E3 ubiquitin-protein ligase RSP5 L333N, P39940”, which abundance fitness is on record?
**A.** Its abundance fitness is -0.627 ± 0.1.

**Q.** With “E3 ubiquitin-protein ligase RSP5 L333P, P39940” as the substance, how does the abundance fitness read?
**A.** The abundance fitness was -0.63 ± 0.054.

**Q.** For “E3 ubiquitin-protein ligase RSP5 L333S, P39940”, which abundance fitness is on record?
**A.** Its abundance fitness is -0.654 ± 0.053.

**Q.** Which abundance fitness does the source give for “E3 ubiquitin-protein ligase RSP5 L333T, P39940” here?
**A.** The abundance fitness was -0.572 ± 0.054.

**Q.** For “E3 ubiquitin-protein ligase RSP5 L333V, P39940”, which abundance fitness is on record?
**A.** Its abundance fitness is -0.447 ± 0.05.

**Q.** For “E3 ubiquitin-protein ligase RSP5 L333W, P39940”, which abundance fitness is on record?
**A.** The abundance fitness was -0.331 ± 0.052.

**Q.** Which abundance fitness does the source give for “E3 ubiquitin-protein ligase RSP5 N353D, P39940” here?
**A.** The abundance fitness was -0.147 ± 0.15.

**Q.** Which abundance fitness does the source give for “E3 ubiquitin-protein ligase RSP5 N353E, P39940” here?
**A.** Its abundance fitness is -0.149 ± 0.06.

**Q.** For “E3 ubiquitin-protein ligase RSP5 N353F, P39940”, which abundance fitness is on record?
**A.** The abundance fitness was -0.323 ± 0.11.

**Q.** Which abundance fitness does the source give for “E3 ubiquitin-protein ligase RSP5 N353G, P39940” here?
**A.** The abundance fitness was -0.132 ± 0.043.

**Q.** With “E3 ubiquitin-protein ligase RSP5 N353H, P39940” as the substance, how does the abundance fitness read?
**A.** The abundance fitness was -0.563 ± 0.14.

**Q.** With “E3 ubiquitin-protein ligase RSP5 N353I, P39940” as the substance, how does the abundance fitness read?
**A.** Its abundance fitness is -0.083 ± 0.078.

**Q.** Which abundance fitness does the source give for “E3 ubiquitin-protein ligase RSP5 N353K, P39940” here?
**A.** Its abundance fitness is -0.141 ± 0.08.

**Q.** With “E3 ubiquitin-protein ligase RSP5 N353L, P39940” as the substance, how does the abundance fitness read?
**A.** Its abundance fitness is -0.278 ± 0.044.

**Q.** For “E3 ubiquitin-protein ligase RSP5 N353M, P39940”, which abundance fitness is on record?
**A.** Its abundance fitness is -0.132 ± 0.062.

— the Human Domainome abundance scans (Beltran et al. 2025)
